Data from patent publication US20240293512A1 (HANMI PHARM, published 2024).
Bridge positions count the residues as written; N and C are the ends. Square brackets hold non-standard residues; d marks the D form. Ends that are not written are not given here. * marks the point of attachment. Acetyl(2-(4-imidazolyl)) = O=C(Cc1c[nH]cn1)*; Aib = CC(C)(N)C(=O)O

T1: human GIP receptor (human, UniProt P48546 22-466)
T1 sequence (looked up): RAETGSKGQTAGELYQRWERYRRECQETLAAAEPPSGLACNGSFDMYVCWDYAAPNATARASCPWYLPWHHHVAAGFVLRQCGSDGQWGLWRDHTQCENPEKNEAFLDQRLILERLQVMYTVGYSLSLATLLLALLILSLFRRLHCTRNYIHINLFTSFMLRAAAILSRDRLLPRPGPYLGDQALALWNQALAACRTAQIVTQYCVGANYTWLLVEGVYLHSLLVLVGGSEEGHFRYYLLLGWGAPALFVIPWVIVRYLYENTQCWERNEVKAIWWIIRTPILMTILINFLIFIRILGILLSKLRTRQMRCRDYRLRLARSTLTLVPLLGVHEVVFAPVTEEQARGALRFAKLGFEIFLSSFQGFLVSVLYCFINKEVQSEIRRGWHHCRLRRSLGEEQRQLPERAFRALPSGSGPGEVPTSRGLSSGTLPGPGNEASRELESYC


Experiments:
Assay in all cases: cell-based or functional assay
human GLP-1 receptor = human GLP-1 receptor (human, UniProt P43220 24-463)
human GIP receptor = target: T1, human GIP receptor
human GCG receptor = human GCG receptor (human, UniProt P47871 26-477)
human GCG receptor, sequence (P47871 26-477): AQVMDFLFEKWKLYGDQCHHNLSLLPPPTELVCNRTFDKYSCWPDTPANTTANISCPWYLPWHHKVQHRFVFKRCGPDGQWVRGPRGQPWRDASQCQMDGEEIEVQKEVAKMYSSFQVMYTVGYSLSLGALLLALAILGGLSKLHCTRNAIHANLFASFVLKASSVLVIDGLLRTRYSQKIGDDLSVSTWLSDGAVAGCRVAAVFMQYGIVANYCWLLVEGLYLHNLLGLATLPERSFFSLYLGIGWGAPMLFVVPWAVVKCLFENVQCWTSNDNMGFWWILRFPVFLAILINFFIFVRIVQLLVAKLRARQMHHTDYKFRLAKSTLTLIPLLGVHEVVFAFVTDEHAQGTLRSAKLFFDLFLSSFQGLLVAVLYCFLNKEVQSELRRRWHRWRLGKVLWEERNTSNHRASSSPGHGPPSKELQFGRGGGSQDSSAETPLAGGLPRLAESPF

| Binder | In vitro activity compared with native peptide (%) vs GLP-1 (cAMP EC50) (human GLP-1 receptor) | In vitro activity compared with native peptide (%) vs GIP (cAMP EC50) (human GIP receptor) | In vitro activity compared with native peptide (%) vs Glucagon (cAMP EC50) (human GCG receptor) |
| --- | --- | --- | --- |
| Y[Aib]QGTFTSDYSKYLDECRAKEFVQWLLAQKGKKNDWKHNIT (bridge 16-20) [triple agonist of SEQ ID NO: 23] | 4.01% | < 0.1% | 9.3% |
| Y[Aib]QGTFTSDYSKALDEKAAKDFVNWLLDQHPSSGQPPPSC (bridge 16-20) [triple agonist of SEQ ID NO: 102] | 23.3% | 58% | 29.5% |
| Y[Aib]QGTFTSDYSKALDEKAAKEFVNWLLDHHPSSGQPPPSC (bridge 16-20) [triple agonist of SEQ ID NO: 98] | 28.1% | 47.1% | 8.2% |
| [Acetyl(2-(4-imidazolyl))]GQGTFTSDLSIQYDSEHQRDFIEWLKDTGPSSGAPPPSHG [triple agonist of SEQ ID NO: 19] | < 0.1% | < 0.1% | < 0.1% |
| [Acetyl(2-(4-imidazolyl))]GQGTFTSDLSKQMDEERAREFIEWLLAQKPSSGAPPPSHG [triple agonist of SEQ ID NO: 17] | 0.2% | < 0.1% | < 0.1% |
| Y[Aib]QGTFTSDYSKYLDECRAKEFVQWLLDHHPSSGQPPPS (bridge 16-20) [triple agonist of SEQ ID NO: 21] | 17.8% | 22.7% | 267% |
| [Acetyl(2-(4-imidazolyl))]GEGTFISDLSKYMDEQAVQLFVEWLMAGGPSSGAPPPSHG [triple agonist of SEQ ID NO: 12] | 0.4% | < 0.1% | < 0.1% |
| [Acetyl(2-(4-imidazolyl))]GQGTFTSDLSKQMDSEAQQLFIEWLKNGGPSSGAPPPSHG [triple agonist of SEQ ID NO: 16] | 2.1% | < 0.1% | < 0.1% |
| [Acetyl(2-(4-imidazolyl))]GQGTFTSDLSIQYEEEAQQDFVEWLKDTGPSSGAPPPSHG [triple agonist of SEQ ID NO: 20] | < 0.1% | < 0.1% | < 0.1% |
| H[Aib]QGTFTSDVSSYLDGQAQKEFIAWLVKGC [triple agonist of SEQ ID NO: 2] | 5.9% | < 0.1% | < 0.1% |
| Y[Aib]QGTFTSDYSKCLDEKRAKEFVQWLLDHHPSSGQPPPS (bridge 16-20) [triple agonist of SEQ ID NO: 22] | 20.1% | 59.7% | 140% |
| [Acetyl(2-(4-imidazolyl))]GEGTFTSDLSKYLDSRRQQLFVQWLKAGGPSSGAPPPSHG [triple agonist of SEQ ID NO: 11] | 1.4% | < 0.1% | < 0.1% |
| Y[Aib]QGTFTSDYSKYLDECRAKEFVQWLKNGGPSSGAPPPS (bridge 16-20) [triple agonist of SEQ ID NO: 24] | 41.2% | < 0.1% | 9.3% |
| [Acetyl(2-(4-imidazolyl))]GQGTFTSDYSIQLDEIAVRDFVEWLKNGGPSSGAPPPSHG [triple agonist of SEQ ID NO: 14] | 28% | < 0.1% | < 0.1% |
| H[Aib]QGTFTSDCSKYLDERAAQDFVQWLLDGGPSSGAPPPS [triple agonist of SEQ ID NO: 25] | 82.6% | < 0.1% | 0.1% |
| Y[Aib]QGTFTSDYSKALDEKAAKEFVNWLLDQHPSSGQPPPSC (bridge 16-20) [triple agonist of SEQ ID NO: 101] | 23.2% | 40.1% | 13.9% |
| Y[Aib]QGTFTSDYSKYLDEKRAKEFVQWLLDCHPSSGQPPPS (bridge 16-20) [triple agonist of SEQ ID NO: 97] | 10.5% | 2.6% | 62.8% |
| [Acetyl(2-(4-imidazolyl))]GQGTFTSDLSKQMDSERAREFIEWLKNTGPSSGAPPPSHG [triple agonist of SEQ ID NO: 18] | < 0.1% | < 0.1% | < 0.1% |
| Y[Aib]QGTFTSDYSKALDEKAAKEFVQWLLDQHPSSGQPPPSC (bridge 16-20) [triple agonist of SEQ ID NO: 100] | 42.2% | 118% | 12.7% |
| H[Aib]QGTFTSDVSSYLLGQAAKQFIAWLVKGGGPSSGAPPPSC [triple agonist of SEQ ID NO: 3] | 1.8% | < 0.1% | < 0.1% |
| Y[Aib]QGTFTSDYSKALDEKAAKDFVNWLLDHHPSSGQPPPSC (bridge 16-20) [triple agonist of SEQ ID NO: 99] | 20.9% | 57.7% | 14.9% |
| [Acetyl(2-(4-imidazolyl))]GEGTFISDYSIQLDEIAVQDFVEWLLAQKPSSGAPPPSHG [triple agonist of SEQ ID NO: 13] | < 0.1% | < 0.1% | < 0.1% |
